Measured values as given in patent publication US12123009B2, “Methods and compositions for PPO herbicide tolerance in plants” (Monsanto Technology LLC, priority 2015, dated 2024).

Legend:
[1] = molecular target: Waterhemp (Amaranthus tuberculata) protoporphyrinogen oxidase (PPO), wild type; assay: PPO enzyme assay (plastid extract); format: biochemical; details: 3 μM protogen; pH 7.4, 30° C.; read-out: S-3100 IC50
[2] = molecular target: Soybean (Glycine max) protoporphyrinogen oxidase (PPO), wild type; assay: PPO enzyme assay (plastid extract); format: biochemical; details: 3 μM protogen; pH 7.4, 30° C.; read-out: S-3100 IC50
[3] = test system: maize (LH244), non-transgenic or expressing H_N10 (SEQ ID NO:4); assay: Transgenic Maize Herbicide Tolerance I (R0 plants sprayed); format: in vivo; details: 7 days
Text: The plant transformation constructs were annotated construct 1, 6, 11, and 16. For maize in planta testing, immature maize (LH244) embryos were transformed with using Agrobacterium tumefaciens and standard methods known in the art.
Leaf samples were collected from R0 plants and screened by PCR to determine the number of copies of the transgene inserted into the plant genome. The plants containing a single copy (single copy) were selfed and outcrossed to generate R1 and F1 seed for future testing, respectively. Plants containing multiple copies (multi-copy) were sprayed as follows: (1) 5 g/ha S-3100 at approximately the V5 growth stage followed by 10 g/ha S-3100 at approximately the V7 growth stage, for a total application of 15 g/ha S-3100 or (2) 10 g/ha S-3100 at approximately the V5 growth stage. The average percentage of injury, on a scale of 0-100 with zero being no injury and 100 being complete crop death, was assessed 7 days after the final treatment for each batch.

[4] = test system: soybean (A3555), non-transgenic or expressing H_N10 (SEQ ID NO: 4); assay: R0 soybean sprayed with S-3100; format: in vivo; details: 5 g/ha, V3, 8 days
Experimental: In soybean, excised embryos (A3555) were transformed with the transformation constructs 1 and 11 using A. tumefaciens and standard methods known in the art. […] Regenerated R0 transgenic plantlets were grown in the greenhouse. […] The herbicide was sprayed at the V3 developmental stage with three fully developed trifoliate leaves and injury ratings were assessed 8 days after treatment. The percentage of plants that were deemed highly tolerant (15% or less injury) was noted.
The herbicide was sprayed at the V3 developmental stage with three fully developed trifoliate leaves and injury ratings taken 8 days after treatment. The percentage of plants that were deemed highly tolerant (25% or less injury) was noted.

[5] = test system: soybean, non-transgenic or expressing H_N10 (SEQ ID NO: 4); assay: Green house S-3100 efficacy screen of R1 soybean; format: in vivo
Experimental: Single-copy transgenic R1 soybean plants in the greenhouse were sprayed with one of three herbicide application rates: Treatment 1 was 5 grams ai/ha S-3100 applied at V4 followed by (fb) R1; Treatment 2 was 10 grams ai/ha S-3100 applied at V4 fb R1; Treatment 3 was 30 grams ai/ha S-3100 applied at V4 fb R1. Crop Injury Percent at V2 (CIPV2) ratings were assessed ten days after treatment. Non-transgenic plants had average injury ratings of 89% to 100% and were not available for rating at the R1 growth stage.

[6] = molecular target: H_N70 (SEQ ID NO: 8), microbial HemG protoporphyrinogen oxidase (Pantoea phytostimulans, UniProt A0ACH3N612); assay: PPO enzyme assay (bacterial extract); details: read-out: S-3100 IC50; 3 μM protogen; pH 7.4, 37° C.
[7] = molecular target: H_N110 (SEQ ID NO: 10), microbial HemG protoporphyrinogen oxidase; assay: PPO enzyme assay (bacterial extract); details: read-out: S-3100 IC50; 3 μM protogen; pH 7.4, 37° C.
soybean plantlets = assay: High-throughput soybean screening for herbicide tolerance (plantlets); format: in vivo, soybean (A3555); design: key: 0 for poor tolerance, high damage, low green coloration; 1 for some tolerance, average damage, moderate green coloration; 2 for good tolerance, low damage, high green coloration; details: S-3100 spray five weeks post-transformation, scored day four
Method in brief: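 Soybean embryo explants (A3555) transformed via A. tumefaciens; at five weeks, plantlets sprayed with two passes of S-3100 (0.3 g in 5.0 mL crop oil concentrate plus 495 mL water). After four days with at least 15 h light daily, green coloration versus damage scored 0 (poor), 1 (some) or 2 (good tolerance).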

[8] = H_N10 (SEQ ID NO: 4), construct 11

H_N70 (SEQ ID NO: 8), microbial HemG protoporphyrinogen oxidase, sequence (A0ACH3N612 entry or part of it): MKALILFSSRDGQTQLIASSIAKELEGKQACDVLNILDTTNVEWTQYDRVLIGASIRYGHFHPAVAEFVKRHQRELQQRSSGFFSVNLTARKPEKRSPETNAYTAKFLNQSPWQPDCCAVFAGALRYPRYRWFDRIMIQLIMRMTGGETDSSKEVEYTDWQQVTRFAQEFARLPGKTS

CCOC(=O)COc1ncccc1Oc1cc(-n2c(=O)cc(C(F)(F)F)n(C)c2=O)c(F)cc1Cl [S-3100, ethyl [3-2-chloro-4-fluoro-5-(1-methyl-6-trifluoromethyl-2,4-dioxo-1,2,3,4-tetrahydropyrimidin-3-yl)phenoxy]-2-pyridyloxylacetate]
IC50 [1]: 9 nM
IC50 [2]: 4 nM
Average Injury ([3]; H_N10, construct 6, Treatment 1: 5 g/ha V5 then 10 g/ha V7 (15 g/ha total)): 28.9%
Average Injury ([3]; H_N10, construct 16, Treatment 2: 10 g/ha V5): 24.2%
Average Injury ([3]; nontransgenic, Treatment 1: 5 g/ha V5 then 10 g/ha V7 (15 g/ha total)): 43.3%
Average Injury ([3]; nontransgenic, Treatment 2: 10 g/ha V5): 26.7%
average injury rating [4, 8]: 47%
highly tolerant plants (25% or less injury) [4, 8]: 30%
average injury rating ([4]; non-transgenic): 60%
highly tolerant plants (25% or less injury) ([4]; non-transgenic): no highly tolerant plants
% Injury R1 stage ([5]; H_N10, construct 1, 5 g/ha): 3%
% Injury V4 stage ([5]; H_N10, construct 1, 5 g/ha): 4.2%
% Injury R1 stage ([5]; H_N10, construct 1, 10 g/ha): 6.5%
% Injury V4 stage ([5]; H_N10, construct 1, 10 g/ha): 7.8%
% Injury R1 stage ([5]; H_N10, construct 1, 30 g/ha): 15.7%
% Injury V4 stage ([5]; H_N10, construct 1, 30 g/ha): 9.4%
% Injury V4 stage ([5]; Nontransgenic, 5 g/ha): 89%
% Injury V4 stage ([5]; Nontransgenic, 10 g/ha): 98%
% Injury V4 stage ([5]; Nontransgenic, 30 g/ha): 100%
IC50 [6]: > 100000 nM
IC50 [7]: > 100000 nM

B1: H_N90: microbial HemG protoporphyrinogen oxidase, SEQ ID NO:1 (SEQ ID NO:11 lacking start methionine; variants 18, 19) (protein, listed as Enterobacter cloacae)
chain: MKALVLYSTRDGQTHAIASYIASCMKEKAECDVIDLTHGEHVNLTQYDQVLIGASIRYGHFNAVLDKFIKRNVDQLNNMPSAFFCVNLTARKPEKRTPQTNPYVRKFLLATPWQPALCGVFAGALRYPRYRWIDKVMIQLIMRMTGGETDTSKEVEYTDWEQVKKFAEDFAKLSYKKAL
coloration score (soybean plantlets; TP9): 1
coloration score (soybean plantlets; TP10): 2
coloration score (soybean plantlets; TP11): 2
coloration score (soybean plantlets; TP12): 2
coloration score (soybean plantlets; TP13): 2
coloration score (soybean plantlets; TP14): 2
coloration score (soybean plantlets; TP15): 2
coloration score (soybean plantlets; TP16): 1
coloration score (soybean plantlets; TP17): 2
coloration score (soybean plantlets; TP18): 2
coloration score (soybean plantlets; TP19): 1
coloration score (soybean plantlets; TP20): 2
coloration score (soybean plantlets; TP21): 1
coloration score (soybean plantlets; TP22): 2
coloration score (soybean plantlets; TP23): 1
coloration score (soybean plantlets; TP24): 1
coloration score (soybean plantlets; TP25): 1
coloration score (soybean plantlets; TP26): 0
coloration score (soybean plantlets; TP27): 1
coloration score (soybean plantlets; TP28): 2
coloration score (soybean plantlets; TP29): 1
coloration score (soybean plantlets; TP30): 1
coloration score (soybean plantlets; TP31): 0
coloration score (soybean plantlets; TP32): 0
coloration score (soybean plantlets; TP33): 2
coloration score (soybean plantlets; TP34): 2
coloration score (soybean plantlets; TP35): 1
coloration score (soybean plantlets; TP36): 2
